Data: doi:10.1101/2024.12.16.628697

Target: USP1/UAF1 (UniProt O94782)
Test: global kinetic fit

Chain of UniProt O94782 (O94782 21-785 G670A/G671A, chain 1 of 2): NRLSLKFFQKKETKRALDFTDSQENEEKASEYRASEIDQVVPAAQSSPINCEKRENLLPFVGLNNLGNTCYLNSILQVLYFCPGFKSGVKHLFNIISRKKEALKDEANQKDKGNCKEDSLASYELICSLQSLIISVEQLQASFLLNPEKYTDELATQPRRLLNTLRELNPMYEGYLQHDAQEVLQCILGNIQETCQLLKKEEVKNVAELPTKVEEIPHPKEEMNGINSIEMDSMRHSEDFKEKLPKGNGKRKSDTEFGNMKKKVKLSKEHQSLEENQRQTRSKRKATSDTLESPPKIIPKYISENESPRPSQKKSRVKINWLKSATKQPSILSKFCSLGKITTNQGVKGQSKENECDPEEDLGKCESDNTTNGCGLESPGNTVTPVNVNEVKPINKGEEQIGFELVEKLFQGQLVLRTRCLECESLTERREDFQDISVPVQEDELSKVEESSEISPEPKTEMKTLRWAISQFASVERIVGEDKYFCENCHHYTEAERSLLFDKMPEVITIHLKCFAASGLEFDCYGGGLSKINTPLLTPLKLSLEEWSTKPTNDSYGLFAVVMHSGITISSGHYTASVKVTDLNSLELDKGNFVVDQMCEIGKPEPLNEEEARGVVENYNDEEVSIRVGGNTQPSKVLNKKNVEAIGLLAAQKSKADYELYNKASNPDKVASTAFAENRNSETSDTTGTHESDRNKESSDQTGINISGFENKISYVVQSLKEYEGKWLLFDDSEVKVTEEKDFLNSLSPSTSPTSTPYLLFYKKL
Chain of UniProt O94782 (Q8TAF3 9-677, chain 2 of 2, further chain): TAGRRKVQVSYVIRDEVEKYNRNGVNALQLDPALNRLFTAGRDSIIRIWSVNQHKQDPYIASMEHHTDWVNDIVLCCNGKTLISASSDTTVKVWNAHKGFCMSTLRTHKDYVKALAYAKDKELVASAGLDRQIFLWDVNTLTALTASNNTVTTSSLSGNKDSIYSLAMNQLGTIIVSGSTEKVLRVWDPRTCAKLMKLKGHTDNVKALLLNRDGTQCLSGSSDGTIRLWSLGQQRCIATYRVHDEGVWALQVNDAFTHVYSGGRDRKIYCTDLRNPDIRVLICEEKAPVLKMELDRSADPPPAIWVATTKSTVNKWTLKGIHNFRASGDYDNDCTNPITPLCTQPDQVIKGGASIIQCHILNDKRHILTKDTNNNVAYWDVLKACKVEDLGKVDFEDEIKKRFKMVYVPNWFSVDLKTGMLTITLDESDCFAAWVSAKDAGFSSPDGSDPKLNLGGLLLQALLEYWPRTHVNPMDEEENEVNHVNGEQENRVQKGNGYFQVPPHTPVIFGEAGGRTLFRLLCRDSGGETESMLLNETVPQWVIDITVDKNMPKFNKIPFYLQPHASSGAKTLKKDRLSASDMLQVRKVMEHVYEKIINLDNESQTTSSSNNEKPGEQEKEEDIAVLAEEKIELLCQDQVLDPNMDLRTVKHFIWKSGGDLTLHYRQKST

- koff: 1240 s⁻¹
Substance: K63-linked diubiquitinated PCNA (K63-PCNA-Ub2) (from UniProt P12004 1-261; P0CG48 1-76; P0CG48 1-76) (complex)
